Data reported in publication doi:10.1101/2020.09.15.297887.

Molecular target: PARP1 (UniProt P09874 1-1014)
Test: fluorescence polarization

PARP1, sequence (P09874 whole entry): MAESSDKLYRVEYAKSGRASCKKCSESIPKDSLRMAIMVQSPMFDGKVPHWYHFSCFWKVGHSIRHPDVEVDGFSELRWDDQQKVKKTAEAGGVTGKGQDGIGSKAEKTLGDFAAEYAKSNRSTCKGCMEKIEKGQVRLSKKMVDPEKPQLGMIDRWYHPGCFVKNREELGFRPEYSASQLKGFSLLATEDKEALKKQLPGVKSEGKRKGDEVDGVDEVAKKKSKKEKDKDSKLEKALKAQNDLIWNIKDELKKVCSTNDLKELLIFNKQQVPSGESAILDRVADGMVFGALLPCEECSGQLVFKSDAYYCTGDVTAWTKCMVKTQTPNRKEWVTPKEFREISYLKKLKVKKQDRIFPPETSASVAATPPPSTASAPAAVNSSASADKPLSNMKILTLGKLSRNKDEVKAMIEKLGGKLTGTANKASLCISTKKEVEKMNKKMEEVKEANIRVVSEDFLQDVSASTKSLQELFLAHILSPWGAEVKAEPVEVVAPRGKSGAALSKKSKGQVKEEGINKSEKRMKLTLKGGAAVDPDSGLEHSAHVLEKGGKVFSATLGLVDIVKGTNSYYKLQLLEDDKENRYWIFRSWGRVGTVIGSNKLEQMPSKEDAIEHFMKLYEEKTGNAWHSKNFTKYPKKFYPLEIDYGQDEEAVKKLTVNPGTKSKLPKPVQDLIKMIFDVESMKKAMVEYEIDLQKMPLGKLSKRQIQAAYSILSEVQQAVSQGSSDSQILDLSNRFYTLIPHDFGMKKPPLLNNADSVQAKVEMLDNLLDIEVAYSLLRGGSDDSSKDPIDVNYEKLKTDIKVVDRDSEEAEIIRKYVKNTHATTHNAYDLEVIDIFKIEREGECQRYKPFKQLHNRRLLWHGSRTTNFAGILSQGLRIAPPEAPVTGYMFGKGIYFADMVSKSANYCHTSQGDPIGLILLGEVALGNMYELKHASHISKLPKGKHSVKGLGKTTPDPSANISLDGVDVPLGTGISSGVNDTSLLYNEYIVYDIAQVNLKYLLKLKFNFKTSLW

GCTGAGCTTCTGGTGAAGCTCAGCTCGCGGCAGCTGGTGCTGCCGCGA (structured_DNA, internal fluorescein-dT (iFluorT) at position 8) [DNA dumbbell with single-strand break]
Kd: 71 nM
